These results are taken from patent publication US20260250338A1 (Molecular Partners, published 2026).

Assay [1] addresses T1, full length human CD16b stably expressed on transduced WT Jurkat cells (human, UniProt O75015 17-200).
T1 construct: whole, on cells; also called CD16b expressing cells; Jurkat CD16b
Kind of assay: flow cytometry on Jurkat-CD16b cells, 5-fold serial dilutions, detection with Penta-His Alexa Fluor 488. The procedure:
Serial dilutions (5-fold) of the constructs were incubated 30 min at 4° C. with 50000 cells in a 96-well plate. […] Cold buffer was added, then cells were spun down prior to supernatant removal. Cells were then fixed with Cell fix buffer (BD) and signal was measured by flow cytometry.

In assay [2] the target is T2, CD16aV allotype of human CD16a expressed on Jurkat-Lucia-NFAT-CD16 Reporter cells (InvivoGen) (human, UniProt P08637 17-254). As to the kind of experiment: cell-based or functional assay.
Assay [3] concerns the target T1, full length human CD16b stably …. As to the kind of experiment: flow cytometry on Jurkat-CD16b cells, serial dilutions, detection with Penta-His Alexa Fluor 647. On the technique in general: In flow cytometry, cells or beads pass a laser one at a time.
Assay [4] deals with T2, CD16aV allotype of human CD16a …. Kind of assay: cell-based or functional assay. This is another data set of the same source.
Assay [5] concerns the target T3, CD32a expressed on Jurkat-NFAT-CD32a reporter cells (Invivogen jktl-nfat-cd32) (UniProt P12318 34-317, limits assumed).
T3 construct: whole, on cells; also called Jurkat-Lucia NFAT-CD32a Reporter cells; Fc receptor CD32a
T3 sequence (looked up): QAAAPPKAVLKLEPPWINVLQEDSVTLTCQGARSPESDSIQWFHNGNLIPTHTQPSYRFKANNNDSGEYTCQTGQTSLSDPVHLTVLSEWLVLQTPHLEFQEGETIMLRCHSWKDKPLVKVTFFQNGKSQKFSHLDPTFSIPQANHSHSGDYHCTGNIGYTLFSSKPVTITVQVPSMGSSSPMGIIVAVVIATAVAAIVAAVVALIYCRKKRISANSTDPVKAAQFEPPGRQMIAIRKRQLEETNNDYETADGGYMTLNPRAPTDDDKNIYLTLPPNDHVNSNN
As to the kind of experiment: flow cytometry on Jurkat-NFAT-CD32a cells, 4-fold serial dilutions, detection with anti-DARPin 1.1.1 antibody. The procedure:
Serial dilutions (4-fold) of the constructs were incubated 30 min at 4° C. with 50000 cells in a 96-well plate. Detection antibody (anti-DARPin 1.1.1 Alexa Fluor […]) was subsequently added to the wells (2 μg/ml diluted in FACS buffer) and incubated at 4° C. for 30 min. Cold buffer was added, then cells were spun down prior to supernatant removal. Cells were then fixed with Cell fix buffer (BD) and signal was measured by flow cytometry.

T2 sequence (P08637 17-254 F176V): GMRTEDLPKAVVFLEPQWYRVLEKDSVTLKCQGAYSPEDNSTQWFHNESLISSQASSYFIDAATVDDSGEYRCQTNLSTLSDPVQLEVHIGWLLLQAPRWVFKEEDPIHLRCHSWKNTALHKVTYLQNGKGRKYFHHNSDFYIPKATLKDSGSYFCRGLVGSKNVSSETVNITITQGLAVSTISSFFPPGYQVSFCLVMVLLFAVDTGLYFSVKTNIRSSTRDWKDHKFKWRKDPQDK
T1 sequence (O75015 17-200): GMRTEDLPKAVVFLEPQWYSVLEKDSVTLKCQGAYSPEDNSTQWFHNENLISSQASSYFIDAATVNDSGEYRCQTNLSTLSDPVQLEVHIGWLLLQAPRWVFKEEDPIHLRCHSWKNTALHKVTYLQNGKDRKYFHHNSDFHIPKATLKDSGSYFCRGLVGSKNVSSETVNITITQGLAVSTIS

B1: Construct No. 4 (SEQ ID NO: 15), 2D (HER2 × CD16a), DARPin #3 with N-terminal HER2 binder of SEQ ID NO: 9 (designed binder)
chain: MRGSHHHHHHGSDLGIKLLFAAAKGQDDEVRELLKAGADVNAKDFQGVTPLHIAAQSGHLEIVEVLLKAGADVNAKDVTGDTPLHLAAQHGHLEIVEVLLKAGADVNAQDERGWTPADLAADWGHEDIAEVLQKAAGSPTPTPTTPTPTPTTPTPTPTGSDLGKKLLQAARAGQLDEVRELLKAGADVNAKDEQGRTPLHIAAASGHLEIVEVLLKAGADVNAKDWFGITPLHIAAWWGHLEIVEVLLKAGADVNAKDQEGRTPLHIAAAIGHLEIVEVLLKAGADVNAQDKSGKTPADLAARAGHQDIAEVLQKAA
notes: Bispecific DARPin; also called Construct 4
Turning to B1, in assay [1], the binding result is “no binding (tested: 1000 nM)”. For the same molecule, the “EC50 (pM), ADCC reporter assay (luminescence), SKOV3 target cells, E:T 5:1, 5 h” value (“EC50 (pM), ADCC reporter assay” for short) in assay [2] is 0.7 pM.

B2: Construct No. 11 (SEQ ID NO: 18), 2D (CD16a × HER2), DARPin #1 with C-terminal HER2 binder of SEQ ID NO: 9 (designed binder)
chain: MRGSHHHHHHGSDLGKKLLQAARAGQLDEVRELLKAGADVNAKDWSGFTPLHIAAVQGHLEIVEVLLKAGADVNAKDHSGWTPLHVAAFSGHLEIVEVLLKAGADVNAKDATGQTPLHLAARTGHLEIVEVLLKAGADVNAQDKSGKTPADLAARAGHQDIAEVLQKAAGSPTPTPTTPTPTPTTPTPTPTGSDLGIKLLFAAAKGQDDEVRELLKAGADVNAKDFQGVTPLHIAAQSGHLEIVEVLLKAGADVNAKDVTGDTPLHLAAQHGHLEIVEVLLKAGADVNAQDERGWTPADLAADWGHEDIAEVLQKAA
B2: in assay [2], the “EC50 (pM), ADCC reporter assay” value is 4.1 pM.

B3: Construct No. 6 (SEQ ID NO: 17), 2D (CD16a × HER2), DARPin #3 with C-terminal HER2 binder of SEQ ID NO: 9 (designed binder)
chain: MRGSHHHHHHGSDLGKKLLQAARAGQLDEVRELLKAGADVNAKDEQGRTPLHIAAASGHLEIVEVLLKAGADVNAKDWFGITPLHIAAWWGHLEIVEVLLKAGADVNAKDQEGRTPLHIAAAIGHLEIVEVLLKAGADVNAQDKSGKTPADLAARAGHQDIAEVLQKAAGSPTPTPTTPTPTPTTPTPTPTGSDLGIKLLFAAAKGQDDEVRELLKAGADVNAKDFQGVTPLHIAAQSGHLEIVEVLLKAGADVNAKDVTGDTPLHLAAQHGHLEIVEVLLKAGADVNAQDERGWTPADLAADWGHEDIAEVLQKAA
notes: Bispecific DARPin; also called Construct 6
Consider B3, for which the “EC50 (pM), ADCC reporter assay” value in assay [2] amounted to 3.5 pM. For the same molecule, the binding result in assay [3] is recorded as “no binding (tested: 1000 nM)”.

B4: Construct No. 20 (SEQ ID NO: 89), CD117 × CD16a, CD117 binder SEQ ID NO: 84 and DARPin #2 (designed binder)
chain: MRGSHHHHHHGSDLGQKLLKAAQYGQDDEVRILLAAGADVNAKDWAGKTPLHVAAEAGHLEIVEVLLKAGADVNAKDKAGETPLHLAAEQGHLEIVEVLLKAGADVNAQDEWGQTPADLAAYYGLEDIAEVLQKAAGSPTPTPTTPTPTPTTPTPTPTGSDLGQKLLRAAKKGQDDEVRELLKAGADVNAKDEQGWTPLHIAAWKGHLEIVEVLLKAGADVNAKDVFDWTPLHVAAHFGHLEIVEVLLKAGADVNAQDRAGETPADLAAQAGHEDIAEVLQKAA
For B4, in assay [4], the “EC50 (pM), DDCC reporter assay (luminescence), Kasumi-1 target cells, E:T 1:1, 24 h” value (“EC50 (pM), DDCC reporter assay” for short) was determined as 86.2 pM and the “Top (RLU), DDCC reporter assay (luminescence), Kasumi-1 target cells” value (“Top (RLU), DDCC reporter assay” for short) came to 26500 RLU.

B5: Construct No. 22 (SEQ ID NO: 91), CD117 × CD16a, CD117 binder SEQ ID NO: 86 and DARPin #2 (designed binder)
chain: MRGSHHHHHHGSDLGKKLLQAARAGQLDEVRELLKAGADVNAKDVYGLTPLHLAAREGHLEIVEVLLKAGADVNAKDAYGETPLHLAAEAGHLEIVEVLLKAGADVNAKDEWGETPLNVAARAGHQDIAEVLQKAAGSPTPTPTTPTPTPTTPTPTPTGSDLGQKLLRAAKKGQDDEVRELLKAGADVNAKDEQGWTPLHIAAWKGHLEIVEVLLKAGADVNAKDVFDWTPLHVAAHFGHLEIVEVLLKAGADVNAQDRAGETPADLAAQAGHEDIAEVLQKAA
On to B5, for which, in assay [4], the “EC50 (pM), DDCC reporter assay” value worked out at 25.2 pM and the “Top (RLU), DDCC reporter assay” value came to 22000 RLU.

B6: Construct No. 5 (SEQ ID NO: 11), 2D (HER2 × CD16a), DARPin #2 with N-terminal HER2 binder of SEQ ID NO: 9 (designed binder)
chain: MRGSHHHHHHGSDLGIKLLFAAAKGQDDEVRELLKAGADVNAKDFQGVTPLHIAAQSGHLEIVEVLLKAGADVNAKDVTGDTPLHLAAQHGHLEIVEVLLKAGADVNAQDERGWTPADLAADWGHEDIAEVLQKAAGSPTPTPTTPTPTPTTPTPTPTGSDLGQKLLRAAKKGQDDEVRELLKAGADVNAKDEQGWTPLHIAAWKGHLEIVEVLLKAGADVNAKDVFDWTPLHVAAHFGHLEIVEVLLKAGADVNAQDRAGETPADLAAQAGHEDIAEVLQKAA
notes: Bispecific DARPin; also called Construct 5
Consider B6, for which the “EC50 (pM), ADCC reporter assay” value in assay [2] came to 0.39 pM. Besides, the binding result is listed as “no binding (tested: 1000 nM)” in assay [3] and “no binding (tested: 400 nM)” in assay [5].

B7: Construct No. 9 (SEQ ID NO: 14), 2D (HER2 × CD16a), DARPin #3 with N-terminal HER2 binder of SEQ ID NO: 8 (designed binder)
chain: MRGSHHHHHHGSDLGKKLLEAARAGQDDEVRELLKAGADVNAKDEYGLTPLYLATAHGHLEIVEVLLKAGADVNAVDAIGFTPLHLAAFIGHLEIAEVLLKAGADVNAQDKFGKTPADIAAGAGNEDIAEVLQKAAGSPTPTPTTPTPTPTTPTPTPTGSDLGKKLLQAARAGQLDEVRELLKAGADVNAKDEQGRTPLHIAAASGHLEIVEVLLKAGADVNAKDWFGITPLHIAAWWGHLEIVEVLLKAGADVNAKDQEGRTPLHIAAAIGHLEIVEVLLKAGADVNAQDKSGKTPADLAARAGHQDIAEVLQKAA
On to B7, for which, in assay [2], the “EC50 (pM), ADCC reporter assay” value worked out at 1.6 pM.

B8: Construct No. 23 (SEQ ID NO: 92), CD117 × CD16a, CD117 binder SEQ ID NO: 87 and DARPin #2 (designed binder)
chain: MRGSHHHHHHGSDLGKKLLKAASWGQDDEVRILLAAGADVNAKDNSGWTPLHAAAWYGHLEIVEVLLKAGADVNAKDKTGLTPLHKAAHVGHLEIVEVLLKAGADVNAQDEWGATPADLAASTGHEDIAEVLQKAAGSPTPTPTTPTPTPTTPTPTPTGSDLGQKLLRAAKKGQDDEVRELLKAGADVNAKDEQGWTPLHIAAWKGHLEIVEVLLKAGADVNAKDVFDWTPLHVAAHFGHLEIVEVLLKAGADVNAQDRAGETPADLAAQAGHEDIAEVLQKAA
Regarding B8, in assay [4], the “EC50 (pM), DDCC reporter assay” value amounted to 120 pM and the “Top (RLU), DDCC reporter assay” value is 7870 RLU.

B9: Construct No. 8 (SEQ ID NO: 12), 2D (CD16a × HER2), DARPin #2 with C-terminal HER2 binder of SEQ ID NO: 8 (designed binder)
chain: MRGSHHHHHHGSDLGQKLLRAAKKGQDDEVRELLKAGADVNAKDEQGWTPLHIAAWKGHLEIVEVLLKAGADVNAKDVFDWTPLHVAAHFGHLEIVEVLLKAGADVNAQDRAGETPADLAAQAGHEDIAEVLQKAAGSPTPTPTTPTPTPTTPTPTPTGSDLGKKLLEAARAGQDDEVRELLKAGADVNAKDEYGLTPLYLATAHGHLEIVEVLLKAGADVNAVDAIGFTPLHLAAFIGHLEIAEVLLKAGADVNAQDKFGKTPADIAAGAGNEDIAEVLQKAA
notes: Bispecific DARPin; also called Construct 8
On to B9, for which the “EC50 (pM), ADCC reporter assay” value in assay [2] came to 0.24 pM. The binding result in assay [5] was “no binding (tested: 400 nM)”.

B10: Construct No. 21 (SEQ ID NO: 90), CD117 × CD16a, CD117 binder SEQ ID NO: 85 and DARPin #2 (designed binder)
chain: MRGSHHHHHHGSDLGAKLLKAAQSGQDDEVRILLAAGADVNAKDKDGYTPLHLAAREGHLEIVEVLLKAGSDVNAKDYYGETPLHQAAEYGHLEIVEVLLKAGADVNAQDEWGATPADLAAQQGHEDIAEVLQKAAGSPTPTPTTPTPTPTTPTPTPTGSDLGQKLLRAAKKGQDDEVRELLKAGADVNAKDEQGWTPLHIAAWKGHLEIVEVLLKAGADVNAKDVFDWTPLHVAAHFGHLEIVEVLLKAGADVNAQDRAGETPADLAAQAGHEDIAEVLQKAA
As for B10, in assay [4], the “EC50 (pM), DDCC reporter assay” value turned out to be 32.3 pM and the “Top (RLU), DDCC reporter assay” value was 23200 RLU.

B11: Construct No. 10 (SEQ ID NO: 16), 2D (CD16a × HER2), DARPin #3 with C-terminal HER2 binder of SEQ ID NO: 8 (designed binder)
chain: MRGSHHHHHHGSDLGKKLLQAARAGQLDEVRELLKAGADVNAKDEQGRTPLHIAAASGHLEIVEVLLKAGADVNAKDWFGITPLHIAAWWGHLEIVEVLLKAGADVNAKDQEGRTPLHIAAAIGHLEIVEVLLKAGADVNAQDKSGKTPADLAARAGHQDIAEVLQKAAGSPTPTPTTPTPTPTTPTPTPTGSDLGKKLLEAARAGQDDEVRELLKAGADVNAKDEYGLTPLYLATAHGHLEIVEVLLKAGADVNAVDAIGFTPLHLAAFIGHLEIAEVLLKAGADVNAQDKFGKTPADIAAGAGNEDIAEVLQKAA
Consider B11, for which the “EC50 (pM), ADCC reporter assay” value in assay [2] worked out at 24 pM.

B12: Construct No. 24 (SEQ ID NO: 93), CD117 × CD16a, CD117 binder SEQ ID NO: 88 and DARPin #2 (designed binder)
chain: MRGSHHHHHHGSDLGHKLLHAAAWGQDDEVRILLAAGADVNAKDQSGWTPLHVAAWYGHLEIVEVLLKAGADVNAKDLKGETPLHLAALVGHLEIVEVLLKAGADVNAQDIAGDTPADLAAIAGHEDIAEVLQKAAGSPTPTPTTPTPTPTTPTPTPTGSDLGQKLLRAAKKGQDDEVRELLKAGADVNAKDEQGWTPLHIAAWKGHLEIVEVLLKAGADVNAKDVFDWTPLHVAAHFGHLEIVEVLLKAGADVNAQDRAGETPADLAAQAGHEDIAEVLQKAA
For B12, in assay [4], the “EC50 (pM), DDCC reporter assay” value was found to be 96.1 pM and the “Top (RLU), DDCC reporter assay” value stood at 8470 RLU.
